T1: Suc-AAP-Ala-pNA
T1 sequence (peptide, N-terminal Suc; C-terminal pNA): AAPA

T2: Suc-AAP-Leu-pNA
T2 sequence (peptide, N-terminal Suc; C-terminal pNA): AAPL

T3: Z-GPR-pNA
T3 sequence (peptide, N-terminal Z; C-terminal pNA): GPR


What was measured:
[1] = target: T1, Suc-AAP-Ala-pNA
[2] = target: Suc-AAP-Gln-pNA
[3] = target: Suc-AAP-Phe-pNA
[4] = target: Suc-AAP-Met-pNA
[5] = target: Suc-AAP-Orn-pNA
[6] = target: Suc-AAP-Arg-pNA
[7] = target: T2, Suc-AAP-Leu-pNA
[8] = target: Suc-AAP-Lys-pNA
[9] = target: T3, Z-GPR-pNA
[10] = target: bovine calf skin collagen (type I collagen) (bovine) (UniProt P02453)

| kcat /Km [1] [µM⁻¹ min⁻¹] | kcat /Km [2] [µM⁻¹ min⁻¹] | kcat /Km [3] [µM⁻¹ min⁻¹] | kcat /Km [4] [µM⁻¹ min⁻¹] | kcat /Km [5] [µM⁻¹ min⁻¹] | kcat /Km [6] [µM⁻¹ min⁻¹] | kcat /Km [7] [µM⁻¹ min⁻¹] | kcat /Km [8] [µM⁻¹ min⁻¹] | kcat /Km [9] [µM⁻¹ min⁻¹] | collagen cleavage (3/4, 1/4 fragmentation pattern) [10] [%] | Binder |
| --- | --- | --- | --- | --- | --- | --- | --- | --- | --- | --- |
| 0.052 | 0.33 | 1.4 | 1.4 | 0.288 | 55 | 3.1 | 1.4 | 0.87 | – | crab collagenase D226G/G189D (enzyme) IVGGVEAVPNSWPHQAALFIDDMYFCGGSLISPEWILTAAHCMDGAGFVDVVLGAHNIREDEATQVTIQSTDFTVHENYNSFVISNDIAVIRLPSPVTLTAAIATVGLPSTDVGVGTVVTPTGWGLPSDSALGISDVLRQVDVPIMSNADCDAVYGIVTDGNICIDSTGGKDTCNGDSGGPLNYNGLTYGITSFGAAAGCEAGYPGAFTRVTYFLDWIQTQTGITP |
| 0.13 | 1.1 | 9.5 | 4.2 | 0.47 | 80 | 9.1 | 3.6 | 0.43 | > 50 | recombinant crab serine collagenase 1 (mature, wild type) (enzyme) IVGGVEAVPNSWPHQAALFIDDMYFCGGSLISPEWILTAAHCMDGAGFVDVVLGAHNIREDEATQVTIQSTDFTVHENYNSFVISNDIAVIRLPSPVTLTAAIATVGLPSTDVGVGTVVTPTGWGLPSDSALGISDVLRQVDVPIMSNADCDAVYGIVTDGNICIDSTGGKGTCNGDSGGPLNYNGLTYGITSFGAAAGCEAGYPDAFTRVTYFLDWIQTQTGITP |
| 0.019 | 0.33 | 6.9 | 2.9 | 0.023 | 2.9 | 4.8 | 0.024 | 0.022 | – | crab collagenase D226G (enzyme) IVGGVEAVPNSWPHQAALFIDDMYFCGGSLISPEWILTAAHCMDGAGFVDVVLGAHNIREDEATQVTIQSTDFTVHENYNSFVISNDIAVIRLPSPVTLTAAIATVGLPSTDVGVGTVVTPTGWGLPSDSALGISDVLRQVDVPIMSNADCDAVYGIVTDGNICIDSTGGKGTCNGDSGGPLNYNGLTYGITSFGAAAGCEAGYPGAFTRVTYFLDWIQTQTGITP |
